Results published in publication PMC2749330 (The Biochemical journal, 2008).

Target: recombinant CLEC-2, monomeric, as used in the surface plasmon resonance studies (UniProt Q9P126 55-229)
Assay: SPR

recombinant CLEC-2, monomeric, as used in the surface plasmon resonance studies, sequence (Q9P126 55-229): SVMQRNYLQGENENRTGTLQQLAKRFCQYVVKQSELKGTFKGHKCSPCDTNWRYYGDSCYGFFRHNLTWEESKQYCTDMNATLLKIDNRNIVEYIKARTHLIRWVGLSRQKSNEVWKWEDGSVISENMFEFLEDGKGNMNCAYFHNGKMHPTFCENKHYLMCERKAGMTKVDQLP

Kd: 24.5 ± 3.7 µM
B1: recombinant podoplanin fused at its C-terminus to the human IgG1 Fc region (Fc fusion, UniProt Q86YL7 23-131, looked up)
chain: ASTGQPEDDTETTGLEGGVAMPGAEDDVVTPGTSEDRYKSGLTTLVATSVNSVTGIRIEDLPTSESTVHAQEQSPSATASNVATSHSTEKVDGDTQTTVEKDGLSTVTL
